B1: GNB5 (parent)
chain: YYPSGDAFASGSDDATCRLYDLRA
B2: BRF1 (parent)
chain: CTACGSVLEDNIIVSEVQFVESSG

Variants of: B1
Test: protein stability index of a GFP-peptide fusion (GPS, HEK-293T) (PSI 1-6); higher = more stable
Conditions: c terminus: a fixed tail appended
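Also: lentivirally expressed fusions sorted by FACS into six bins by GFP to DsRed ratio, PSI derived from sequencing read proportions per bin multiplied by bin number.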

Protein stability index, by site and new letter:
L22: N 2.84 | K 3.07 | P 2.85 | R 2.75 | V 2.62 | A 2.8 | F 2.64 | H 3.09 | Y 2.68 | Q 2.55 | T 2.73 | S 3.08 | I 2.78 | E 3.34 | C 3.17 | W 2.26 | G 2.65 | M 2.49 | D 3.03
A24: K 2.43 | G 2.7 | C 2.3 | N 2.79 | Y 2.22 | I 1.9 | R 2.41 | H 2.24 | F 2.07 | M 2.85 | L 2.14 | D 2.62 | S 2.32 | T 2.86 | Q 3.01 | V 1.78 | P 2.34 | E 2.27 | W 2
R18: N 2.54 | V 2.67 | T 2.77 | W 2.15 | P 3.13 | Y 2.49 | Q 2.85 | S 2.88
L19: W 2.46 | D 3.34 | H 2.44 | V 2.56 | S 2.87 | N 2.72 | P 2.61 | R 2.55 | Y 2.57 | M 2.5 | Q 2.65 | K 2.77 | T 3.07 | E 3.39 | C 2.66 | F 2.33 | G 2.9 | A 2.87 | I 2.3
D21: E 2.47 | Q 2.3 | T 1.99 | L 2.02 | A 2.18 | M 2.23 | N 1.99 | F 1.5 | Y 1.61 | H 2.31 | W 2.25 | S 1.89 | G 2.2 | V 1.8 | R 1.99 | K 2.43 | C 1.58 | P 2.52 | I 2.41
R23: T 2.18 | C 2.27 | M 2.37 | V 2.03 | A 2.47 | D 3.01 | F 2.27 | S 2.81 | Y 2.01 | L 2.03 | H 2.87 | W 2.15 | G 2.65 | I 2.37 | N 2.33 | Q 2.47 | E 3.14 | P 2.86 | K 2.58
Y20: P 3.32 | A 2.73 | H 2.42 | D 3.13 | N 2.95 | C 2.26 | S 2.87 | V 2.9 | T 2.65 | Q 2.88 | G 2.63 | W 2.33 | I 2.84 | R 3.13 | L 2.6 | E 3.15 | K 2.88 | M 2.77 | F 2.4

Variants of: B2
Test: as above
Conditions: c terminus: a fixed tail appended

Protein stability index of substitutions, site by site:
A3: M 2.87 | I 2.06 | D 2.28 | F 2.4 | K 4.04 | L 2.08 | H 2.56 | G 2.37 | E 3.6
C1: S 4.13 | V 2.2 | F 2.63 | H 3.6 | I 1.46 | T 4.16 | N 3.65 | A 3.88 | L 3.56 | Y 3.18 | M 3.6 | R 3.83 | Q 4.3 | E 4.86 | D 4.46 | G 4.18 | W 2.51 | P 3.29
T2: F 2.12 | V 1.86 | I 2.52 | R 3.17 | A 3.64 | W 2.54 | E 3.25 | S 2.87 | K 3.48 | L 2.75 | N 3.02 | D 3.42 | M 2.78 | P 2.72 | H 3 | Y 2.21 | G 2.33 | Q 3.48
